Laboratory results: patent US20150368300A1, “COMPOSITIONS AND METHODS RELATING TO […] DOT1L RECRUITMENT BY MLL-FUSION PROTEINS” (published 2015)
Each block holds one binder with its values, some of them ahead of it. Where no end group is shown, it is not given here. fluorescein = fluorescein label, coupled through a lysine and two β-alanine spacer

Key:
[1] = target: T1, GB1-AF9 (497-568) (human) (UniProt P42568); experiment: competitive FP; displacement of Flu-DOT1L from GB1-AF9
T1 sequence: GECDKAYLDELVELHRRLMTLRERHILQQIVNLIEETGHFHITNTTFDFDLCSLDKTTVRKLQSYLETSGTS

[2] = target: T2, ENL (489-559), recombinant C-terminal domain of ENL (Homo sapiens (Human), UniProt Q03111); experiment: competitive SPR; peptide pre-incubated with ENL (500 nM), over immobilised Mocr-DOT1L (826-1095)
T2 sequence: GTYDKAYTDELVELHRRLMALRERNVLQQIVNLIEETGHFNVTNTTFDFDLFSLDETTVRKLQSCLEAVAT
Experimental: Solution competitive SPR based assay was performed to determine the IC₅₀ values of DOT1L peptides. […] IC₅₀ values were determined by non-linear least squares analysis using Graph Pad Prism 5.0 software.

[3] = target: T3, AF9 (497-568), recombinant C-terminal domain of human AF9 (human, UniProt P42568); experiment: competitive SPR; peptide pre-incubated with AF9 (500 nM), over immobilised Mocr-DOT1L (826-1095)
[4] = target: Mocr-DOT1L (826-1095) (human) (UniProt Q8TEK3); experiment: SPR; Mocr-DOT1L (826-1095) immobilised
[5] = target: T1, GB1-AF9 (497-568) (human); experiment: competitive FP; displacement of N-Flu-DOT1L from GB1-AF9
[6] = target: T4, MBP-ENL (489-559) (Homo sapiens (Human)) (UniProt Q03111); experiment: ITC; peptide (400 µM) into MBP-ENL (489-559) (80 µM)
T4 sequence: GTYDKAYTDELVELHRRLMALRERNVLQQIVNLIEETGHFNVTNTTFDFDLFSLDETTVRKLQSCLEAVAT

[7] = target: T1, GB1-AF9 (497-568) (human); experiment: FP saturation; 5 nM labeled peptide titrated with GB1-AF9
DOT1L (925-1095) (human) [8] = target: DOT1L (925-1095) (human) (UniProt Q8TEK3); experiment: SPR; DOT1L construct immobilised on CM5 chip
[9] = target: Mocr-DOT1L (826-1095) (human) (UniProt Q8TEK3); experiment: SPR; DOT1L construct immobilised on CM5 chip
DOT1L (826-958) (human) = target: T5, DOT1L (826-958) (human) (UniProt Q8TEK3); experiment: SPR; DOT1L construct immobilised on CM5 chip
T5 sequence: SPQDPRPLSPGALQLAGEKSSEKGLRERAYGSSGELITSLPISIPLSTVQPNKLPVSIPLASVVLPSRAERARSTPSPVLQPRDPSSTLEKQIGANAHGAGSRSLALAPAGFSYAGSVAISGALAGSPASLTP

DOT1L (826-937) (human) = target: T6, DOT1L (826-937) (human) (UniProt Q8TEK3); experiment: SPR; DOT1L construct immobilised on CM5 chip
T6 sequence: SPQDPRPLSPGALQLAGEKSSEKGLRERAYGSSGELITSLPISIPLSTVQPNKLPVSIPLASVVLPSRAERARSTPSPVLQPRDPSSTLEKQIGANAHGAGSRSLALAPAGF

DOT1L (854-925) (human) = target: T7, DOT1L (854-925) (human) (UniProt Q8TEK3); experiment: SPR; DOT1L construct immobilised on CM5 chip
T7 sequence: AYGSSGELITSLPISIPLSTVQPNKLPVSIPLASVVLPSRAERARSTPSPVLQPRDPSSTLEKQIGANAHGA

DOT1L (854-1095) (human) = DOT1L (854-1095) (human) (UniProt Q8TEK3); experiment: SPR; DOT1L construct immobilised on CM5 chip
DOT1L (925-1095) (human) [10] = target: DOT1L (925-1095) (human) (UniProt Q8TEK3); experiment: SPR; DOT1L (925-1095) immobilised, compared with the longer constructs
[11] = target: Flag-tagged full length human DOT1L protein, DOT1L (1-1537) (human) (UniProt Q8TEK3); experiment: SPR; Flag-DOT1L captured on anti-Flag CM5 chip, ENL as analyte
[12] = target: T4, MBP-ENL (489-559) (Homo sapiens (Human)); experiment: ITC
[13] = target: T4, MBP-ENL (489-559) (Homo sapiens (Human)); experiment: ITC; peptide (500 µM) into MBP-ENL (110 µM)
[14] = target: T3, AF9 (497-568), recombinant C-terminal …; experiment: competitive SPR
[15] = target: T2, ENL (489-559), recombinant C-terminal …; experiment: competitive SPR
[16] = target: T4, MBP-ENL (489-559) (Homo sapiens (Human)); experiment: FP saturation; 10 nM Flu-DOT1L titrated with MBP-ENL
[17] = target: T1, GB1-AF9 (497-568) (human); experiment: FP saturation; 10 nM Flu-DOT1L titrated with GB1-AF9
[18] = target: Flag-tagged full length human DOT1L protein, DOT1L (1-1537) (human) (UniProt Q8TEK3); experiment: SPR; Flag-DOT1L captured on anti-Flag CM5 chip, AF9 as analyte
[19] = target: Flag-tagged full length human DOT1L protein, DOT1L (1-1537) (human) (UniProt Q8TEK3); experiment: SPR; full length Flag-DOT1L captured on chip

IC50 [1]: 560 nM
Binder: LSPLRDTPPPQSLMVKITLDLLSRIPQ [AF4 recombinant protein (749-775 residues)]

IC50 [2]: 1560 nM
IC50 [3]: 320 nM
Binder: Ac-LPISIPLSTVQPNKLP-NH2 [DOT1L 16 mer peptide, Ac-LPISIPLSTVQPNKLP-NH2 (a.a. 865-880)]

IC50 [2]: > 200000 nM
IC50 [3]: > 200000 nM
Binder: Ac-LPISAPLSTV-NH2 [I869A, alanine mutated DOT1L 10mer peptide]

IC50 [2]: 4200 nM
IC50 [3]: 700 nM
Binder: Ac-LPISIPLSTA-NH2 [V874A, alanine mutated DOT1L 10mer peptide]

IC50 [2]: 11600 nM
IC50 [3]: 2800 nM
Binder: Ac-LPISIALSTV-NH2 [P870A, alanine mutated DOT1L 10mer peptide]

IC50 [2]: 147000 nM
IC50 [3]: 30700 nM
Binder: Ac-LPISIPASTV-NH2 [L871A, alanine mutated DOT1L 10mer peptide]

IC50 [2]: 1340 nM
IC50 [3]: 490 nM
Binder: Ac-LPISIPLSTV-NH2 [DOT1L 10mer peptide, Ac-LPISIPLSTV-NH2 (a.a. 865-874)]

Kd [4]: 2800 nM
fold decrease in binding affinity against the intact ENL C-terminal domain [4]: 10 fold
B1: ENL H1 (489-544) (protein)
chain: GTYDKAYTDELVELHRRLMALRERNVLQQIVNLIEETGHFNVTNTTFDFDLFSLDE

Ki [5]: 80 nM
Kd [6]: 900 nM
Binder: Ac-LPISIPLSTVQPNKLP-NH2 [DOT1L 16 mer peptide, Ac-…-NH2 (a.a. 865-880)]

IC50 [2]: 27500 nM
IC50 [3]: 98500 nM
Binder: Ac-APISIPLSTV-NH2 [L865A, alanine mutated DOT1L 10mer peptide]

Kd [7]: 127 nM
Binder: Ac-LPISIPLSTV-fluorescein (also: C-terminal fluorescein label, attachment not given here) [C-Flu-DOT1L, fluorescently labeled DOT1L-10 mer peptide (C-terminal label)]

IC50 [2]: 6500 nM
IC50 [3]: 3300 nM
Binder: Ac-LAISIPLSTV-NH2 [P866A, alanine mutated DOT1L 10mer peptide]

Kd (DOT1L (925-1095) (human) [8]): 6220 nM
Kd [9]: 238 nM
Kd (DOT1L (826-958) (human)): 122 nM
Kd (DOT1L (826-937) (human)): 81 nM
Kd (DOT1L (854-925) (human)): 90 nM
Kd (DOT1L (854-1095) (human)): 148 nM
fold decrease in binding affinity (DOT1L (925-1095) (human) [10]): 30 fold
Kd [11]: 206 nM
B2: ENL (489-559), recombinant C-terminal domain of ENL (protein)
chain: GTYDKAYTDELVELHRRLMALRERNVLQQIVNLIEETGHFNVTNTTFDFDLFSLDETTVRKLQSCLEAVAT

IC50 [2]: 7300 nM
IC50 [3]: 3900 nM
fold lower affinity against the 16-mer and 10-mer DOT1L peptides [12]: 3 fold
Kd [13]: 3400 nM
fold reduction in binding against the 10-mer peptide [14]: 8 fold
fold reduction in binding against the 10-mer peptide [15]: 5 fold
Binder: Ac-LPISIPL-NH2 [DOT1L 7 mer peptide, Ac-LPISIPL-NH2 (865-871)]

Ki [5]: 203 nM
IC50 [2]: 360 nM
IC50 [3]: 58 nM
Binder: Ac-LPISIPLSAV-NH2 [T873A, alanine mutated DOT1L 10mer peptide]

IC50 [2]: 430 nM
IC50 [3]: 200 nM
Binder: Ac-LMVKITLDLLSRIP-NH2 [AF4 14 mer peptide, Ac-LMVKITLDLLSRIP-NH2]

Kd [4]: 14600 nM
fold decrease in binding affinity against the intact ENL C-terminal domain [4]: 30 fold
Binder: EETGHFNVTNTTFDFDLFSLDETTVRKLQSCLEAVAT [ENL H2 (523-559)]

IC50 [2]: > 200000 nM
IC50 [3]: 57200 nM
Binder: Ac-LPASIPLSTV-NH2 [I867A, alanine mutated DOT1L 10mer peptide]

Ki [5]: 68 nM
Kd [6]: 1100 nM
Binder: Ac-LPISIPLSTV-NH2 [DOT1L 10mer peptide, Ac-…-NH2 (a.a. 865-874)]

Kd [16]: 495 nM
Kd [17]: 65 nM
Kd [7]: 95 nM
Binder: LPISIPLSTV-NH2 (not fully specified (N-terminus)) [N-Flu-DOT1L, fluorescein-labeled DOT1L 10-mer peptide (N-terminal label)]

IC50 [2]: 2800 nM
IC50 [3]: 550 nM
Binder: Ac-LPISIPLATV-NH2 [S872A, alanine mutated DOT1L 10mer peptide]

IC50 [1]: 280 nM
Binder: Ac-LMVKITLDLLSRIP-NH2 [AF4 14 mer peptide, Ac-…-NH2]

IC50 [2]: 29100 nM
IC50 [3]: 5300 nM
Binder: Ac-LPIAIPLSTV-NH2 [S868A, alanine mutated DOT1L 10mer peptide]

Kd [18]: 33 nM
Kd (DOT1L (925-1095) (human) [8]): 1820 nM
Kd [9]: 111 nM
Kd (DOT1L (826-958) (human)): 92 nM
Kd (DOT1L (826-937) (human)): 78 nM
Kd (DOT1L (854-925) (human)): 42 nM
Kd (DOT1L (854-1095) (human)): 135 nM
fold decrease in binding affinity (DOT1L (925-1095) (human) [10]): 50 fold
fold higher affinity (AF9 against ENL) [19]: 6 fold
B3: AF9 (497-568), recombinant C-terminal domain of human AF9 (protein)
chain: GECDKAYLDELVELHRRLMTLRERHILQQIVNLIEETGHFHITNTTFDFDLCSLDKTTVRKLQSYLETSGTS
